Top data for one molecule are collected here from patent US20250066499A1 (SUNSHINE GUOJIAN PHARMACEUTICAL SHANGHAI, published 2025).

Assay in all cases: ELISA, high plateau value (OD 450 nm)
In general terms: An ELISA detects its analyte on a solid surface through an enzyme-linked reagent.

In one assay the target is T1, CD73-ND-E143A (human, UniProt P21589 27-317).
T1 construct: Alanine mutant of CD73-ND
T1 sequence: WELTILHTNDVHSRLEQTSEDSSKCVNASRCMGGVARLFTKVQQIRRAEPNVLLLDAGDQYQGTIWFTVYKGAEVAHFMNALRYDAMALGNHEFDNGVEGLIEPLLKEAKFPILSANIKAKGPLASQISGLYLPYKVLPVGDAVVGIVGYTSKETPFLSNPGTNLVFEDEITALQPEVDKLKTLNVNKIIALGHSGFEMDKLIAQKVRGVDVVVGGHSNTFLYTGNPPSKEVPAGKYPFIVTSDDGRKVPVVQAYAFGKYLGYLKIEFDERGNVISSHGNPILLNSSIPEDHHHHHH
As to the method: (§1) The ELISA plates were coated with SA protein diluted to 1.5 μg/mL in coating buffer (50 mM carbonate coating buffer, pH 9.6) and incubated overnight at 4° C. The supernatant was discarded, and the plates were washed three times with PBST. Then, 5% skimmed milk powder prepared with PBS was added for blocking and the plates were incubated for 2 h at 37° C. After washing the plates once with PBST, CD73-biotin protein (prepared by biotinylating CD73-His protein according to the EZ-Link NHS-Biotin Reagent instructions) was diluted to 0.5 μg/mL and added at 100 μL/well for incubation at room temperature for 1 h. The plates were washed three times with PBST, and the prepared murine-derived monoclonal antibodies against human CD73 were serially diluted with 1% BSA buffer prepared with PBST and added to the ELISA plates at 100 μl/well. The plates were incubated at 37° C. for 1 h. After washing the plates three times with PBST, HRP-labeled goat anti-mouse IgG secondary antibody was added and the plates were incubated for 30 min at 37° C. After washing the plates three times with PBST, the residual droplets were patted dry on absorbent paper as much as possible. Then, 100 μl of TMB color developing solution was added to each well, and the plates were incubated in the dark at room temperature for 5 min for color development. Subsequently, 50 μl of 2M H₂SO₄ stop solution was added to each well to terminate the substrate reaction. The OD values were read at 450 nm using a multimode microplate reader to analyze the binding ability of the tested antibodies to the target antigen human CD73-His.
(§2) Referring to the experimental method in Example 3, the affinity of 48A11-HuV33 for various mutant proteins of CD73-ND was determined. The SA protein was diluted to 1 μg/mL for coating the ELISA plates, and the biotinylated CD73 protein (CD73-biotin) was used at a concentration of 0.1 μg/mL.

In the next assay the target is T2, CD73-ND-K180A (human, UniProt P21589 27-317).
T2 construct: Alanine mutant of CD73-ND
T2 sequence: T1 sequence with A143E, K180A
As to the method:
as §1, §2

For a further assay, the target named is T3, CD73-ND-N185A (human, UniProt P21589 27-317).
T3 construct: Alanine mutant of CD73-ND
T3 sequence: T1 sequence with A143E, N185A
The procedure: as §1, §2

Another assay has as its target T4, CD73-ND-V144A (human, UniProt P21589 27-317).
T4 construct: Alanine mutant of CD73-ND
T4 sequence: T1 sequence with A143E, V144A
The procedure: as §1, §2

The target of another assay is T5, CD73-ND-L181A (human, UniProt P21589 27-317).
T5 construct: Alanine mutant of CD73-ND
T5 sequence: T1 sequence with A143E, L181A
The procedure:
as §1, §2

Another assay has as its target T6, CD73-ND-his (human, UniProt P21589 27-317).
T6 construct: Biotinylated and captured on streptavidin in the ELISA
T6 sequence: T1 sequence with A143E
The procedure: as §1, §2

Positions count from the first letter of the chain named.

B1: 48A11-HuV33 (antibody, human IgG4, V domains shown)
VH: QVQLVQSGAEVKKPGASVKVSCKASGYTFTSYWMHWVRQAPGQGLEWIGEINPSIGRTNYNEKFKSRVTLTRDTSTSTAYMELSSLRSEDTAVYYCARRVYGTMDYWGQGTLVTVSS
VL: DIQMTQSPSSLSASVGDRVTITCKASQDINSYLSWFQQKPGKSPKLLIYRANIWVDGVPSRFSGSGSGQDYTFTISSLQPEDIATYYCLQYDELYTFGQGTKVEIK
notes: Humanized
In the case of B1, the Top stood at 1.77 with CD73-ND-E143A; 1.74 in the assay with CD73-ND-K180A; 1.9 in the assay with CD73-ND-N185A; 1.69 with CD73-ND-V144A; 1.05 with CD73-ND-L181A; 1.98 with CD73-ND-his.
